Measurements as given in US20190309074A1, “DEGLYCOSYLATED ANTIBODY SPECIFICALLY BINDING TO CLEC14A AND USES THEREOF” (WOORI TECHNOLOGIES CORPORATION, priority 2016, published 2019).
Residue numbers refer to the chain shown, from its start.

Tests used:
[1] = tested on: VEGF-dependent microvessel formation; experiment: mouse Matrigel plug assay, VEGF-dependent microvessel formation; assay type: in vivo
Protocol: In order to observe in vivo efficacies of deglyco C1 IgG on VEGF-dependent angiogenesis, a mouse Matrigel model was established, hemoglobin level was measured as a marker of microvessel formation, and inhibitory activities against microvessel formation of deglyco C1 IgG and bevacizumab were compared by a mouse Matrigel plug assay.

HCT116/Beva cells = experiment: Matrigel plug angiogenesis assay, CD31 microvessel density; assay type: in vivo; settings: single dose of 5 mg/kg, 14 days
Protocol: (§1) Matrigel plug angiogenesis assay was conducted in the presence of deglyco C1 IgG or bevacizumab with a single dose of 5 mg/kg or the absence thereof using HCT116 human colorectal cancer cells and bevacizumab-applied HCT116 human colorectal cancer cells (HCT116 and HCT116/Beva). 14 days later, the Matrigel plug was removed, and immunohistochemistry was conducted on CD31 and microvascular markers. A microvessel density was measured by quantifying CD31 positive per field in an image each obtained by a confocal microscope.

[2] = tested on: HCT116 human colorectal cancer cells; experiment: as above; assay type: in vivo; settings: single dose of 5 mg/kg, 14 days
Protocol: as §1

[3] = tested on: VEGF-dependent blood vessel growth in rat aorta; experiment: ex vivo rat aortic ring assay; settings: cultured in combination with VEGF
Protocol: In order to further investigate effects of deglyco C1 IgG on VEGF-dependent angiogenesis, ex vivo rat aortic ring assay was conducted in the presence or absence of deglyco C1 IgG and bevacizumab. Blood vessels were almost not grown in the rat aorta in endothelial basal medium (EBM), whereas most blood vessels were grown in the rat aorta under VEGF expression conditions.

U87 human glioma = experiment: U87 tumor growth; assay type: in vivo; settings: measured weekly for one month
CFPAC-1 cells = experiment: tumor cell-derived Matrigel plug angiogenesis assay; assay type: in vivo, mouse; settings: single dose of 10 mg/kg, 2 weeks, nude mice
Protocol: (§2) In order to investigate in vivo effects of deglyco C1 IgG on tumor angiogenesis, tumor cell-derived Matrigel plug angiogenesis assay was conducted on thymus-removed nude mice. SNU182- and CFPAC-1 cells and U87 human glioma cells containing Matrigel were transplanted into thymus-removed nude mice in the presence of deglyco C1 IgG and bevacizumab with a single dose of 10 mg/kg or in the absence thereof. 2 weeks later, the Matrigel plug was removed and the total hemoglobulin content of each group was measured with an ELISA reader.

U87 human glioma cells = experiment: as above; assay type: in vivo, mouse; settings: single dose of 10 mg/kg, 2 weeks, nude mice
Protocol: as §2

SNU182 cells = experiment: as above; assay type: in vivo, mouse; settings: single dose of 10 mg/kg, 2 weeks, nude mice
Protocol: as §2

HUVECs = experiment: HUVEC viability (cell counting Kit-8); assay type: cell-based, human; settings: 2 days
Protocol: In order to evaluate effects of deglyco C1 IgG on toxicity of endothelial cells, after treatment with deglyco C1 IgG, viability of HUVECs was measured. Viability was measured in accordance with the manufacturer's manual through cell counting Kit-8 (#CK04-13, Dojindo Laboratories, Kumamoto, Japan).

[4] = biological target: T1, human CLEC14a on human umbilical vein endothelial cells (HUVECs) (human, UniProt Q86T13 22-490); experiment: flow cytometry on HUVEC
T1 construct: whole, on cells; also called CLEC14a on HUVEC surfaces
T1 sequence (looked up): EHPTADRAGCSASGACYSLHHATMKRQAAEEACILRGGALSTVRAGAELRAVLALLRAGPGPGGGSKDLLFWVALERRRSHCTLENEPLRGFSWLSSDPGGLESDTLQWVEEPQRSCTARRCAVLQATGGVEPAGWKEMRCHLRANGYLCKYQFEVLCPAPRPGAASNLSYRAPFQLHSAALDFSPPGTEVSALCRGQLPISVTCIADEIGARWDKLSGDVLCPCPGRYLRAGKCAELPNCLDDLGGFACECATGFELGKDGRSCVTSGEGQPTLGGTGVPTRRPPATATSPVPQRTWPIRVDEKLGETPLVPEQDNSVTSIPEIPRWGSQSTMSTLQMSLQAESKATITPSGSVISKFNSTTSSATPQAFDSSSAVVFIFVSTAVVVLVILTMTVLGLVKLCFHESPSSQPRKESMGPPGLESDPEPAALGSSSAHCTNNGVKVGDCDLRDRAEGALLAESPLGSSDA
Protocol: (§3) In order to identify cross-species reactivity of the optimized antibodies, HUVECs (human umbilical vein endothelial cells) and MAECs (mouse aortic endothelial cells) were each cultured, the two cell groups were treated with 20 ug/ml of the parent antibody (original C1), deglyco C1, and clones 1, 13 and 16, and whether or not binding ability exists on the surface of two types of cells was identified by flow cytometry.

[5] = biological target: T2, mouse CLEC14a on mouse aortic endothelial cells (MAECs) (mouse, UniProt Q8VCP9 22-459); experiment: flow cytometry on MAEC
T2 construct: whole, on cells
T2 sequence (looked up): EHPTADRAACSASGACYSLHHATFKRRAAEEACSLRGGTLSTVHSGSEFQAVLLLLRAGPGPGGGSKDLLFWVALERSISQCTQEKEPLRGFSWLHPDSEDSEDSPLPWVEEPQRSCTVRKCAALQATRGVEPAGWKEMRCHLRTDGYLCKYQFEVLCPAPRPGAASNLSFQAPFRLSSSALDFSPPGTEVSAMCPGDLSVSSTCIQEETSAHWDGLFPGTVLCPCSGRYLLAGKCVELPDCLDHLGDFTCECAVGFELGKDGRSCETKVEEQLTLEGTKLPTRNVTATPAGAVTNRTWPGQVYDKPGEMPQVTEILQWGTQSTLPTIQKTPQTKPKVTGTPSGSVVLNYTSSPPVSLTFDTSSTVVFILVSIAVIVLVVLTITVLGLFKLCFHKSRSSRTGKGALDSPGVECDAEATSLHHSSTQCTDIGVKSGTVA
Protocol: as §3

hclec14a-ECD-myc [6] = biological target: T3, hclec14a-ECD-myc (human, UniProt Q86T13 22-397); experiment: biolayer interferometry (Octet RED96), curves at 62.5, 31.25, 15.625 and 7.8125 nM
T3 construct: extracellular domain; Purified protein; also called extracellular domain of human clec14a; not shown: myc tag
T3 sequence (looked up): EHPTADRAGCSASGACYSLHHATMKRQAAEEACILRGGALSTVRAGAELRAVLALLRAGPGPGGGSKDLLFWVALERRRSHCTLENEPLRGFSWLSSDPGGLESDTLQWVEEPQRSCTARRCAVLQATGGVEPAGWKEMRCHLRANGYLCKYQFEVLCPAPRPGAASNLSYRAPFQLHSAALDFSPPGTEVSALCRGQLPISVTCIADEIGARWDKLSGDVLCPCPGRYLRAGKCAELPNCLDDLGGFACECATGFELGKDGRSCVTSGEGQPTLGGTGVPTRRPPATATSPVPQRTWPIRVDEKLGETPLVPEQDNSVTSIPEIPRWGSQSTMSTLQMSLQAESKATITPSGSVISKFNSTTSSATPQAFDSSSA

mclec14a-CTLD-Fc = biological target: T4, mclec14a-CTLD-Fc (mouse, UniProt Q8VCP9 31-172, limits assumed); experiment: ELISA on mclec14a-CTLD-Fc
T4 construct: domain: C-type lectin-like domain (CTLD); also called mouse clec14a-CTLD-Fc; mouse CTLD; not shown: Fc
T4 sequence (looked up): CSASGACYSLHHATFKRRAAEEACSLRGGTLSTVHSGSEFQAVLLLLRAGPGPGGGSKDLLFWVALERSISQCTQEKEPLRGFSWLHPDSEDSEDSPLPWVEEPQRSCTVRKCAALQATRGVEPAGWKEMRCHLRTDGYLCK

hclec14a-ECD-myc [7] = biological target: T3, hclec14a-ECD-myc; experiment: biolayer interferometry, Octet RED96
hclec14a-ECD-myc [8] = biological target: T3, hclec14a-ECD-myc; experiment: ELISA, hclec14a-CTLD-Fc-HRP with hclec14a-ECD
Protocol: In addition, hclec14a-CTLD-Fc-HRP was incubated together with purified hclec14a-ECD in the presence of an increasing concentration of parent antibody IgG or deglyco C1 IgG, or in the absence thereof.

[9] = biological target: T1, human CLEC14a on human umbilical vein …; experiment: cell ELISA on HUVECs coated on the plate
Protocol: In order to analyze action mechanisms of deglyco C1 IgG at a molecule-scale, specifically, in angiogenesis, HUVECs were treated with hclec14a-CTLD-Fc-HRP (HRP-labeled hclec14a-CTLD-Fc) in the absence or presence of an increasing concentration of parent antibody IgG or deglyco C1 IgG.

[10] = tested on: MAECs (mouse aortic endothelial cells); experiment: flow cytometry cross-species reactivity; assay type: cell-based; settings: 20 ug/ml
Protocol: as §3

[11] = tested on: HUVECs (human umbilical vein endothelial cells); experiment: flow cytometry cross-species reactivity; assay type: cell-based; settings: 20 ug/ml
Protocol: as §3

GFP-transfected HUVECs = experiment: IncuCyte real-time VEGF-dependent angiogenesis assay; assay type: cell-based, human
Protocol: In order to identify inhibitory activity of optimized candidate antibodies against angiogenesis dependent upon VEGF, which is a key factor of angiogenesis, anti-angiogenesis activity was comparatively analyzed using an IncuCyte FLR live content imaging system (Essen Bioscience Inc.) providing real-time analysis of angiogenesis. First, GFP-transfected HUVECs were seeded on a […] plate, were treated with 36 types of antibodies at a concentration of 20 ug/ml and in vitro efficacy was then compared. At this time, optimized antibodies were comparatively analyzed in terms of efficacy with parental IgG (parent antibody: clone 1 of WO 2013/187556), deglyco C1 and bevacizumab (Avastin) as positive control groups.

HUVEC migration = experiment: IncuCyte HUVEC migration assay; assay type: cell-based, human; settings: 20 ug/ml
Protocol: In order to analyze in vitro efficacies of the optimized candidate antibodies on endothelial migration, which is another function of angiogenesis, HUVEC migration assay was conducted using an IncuCyte FLR live content imaging system (Essen Bioscience Inc). At this time, regarding a wound, a uniform wound was created using a wound maker commercially available from Incucyte and was treated with 20 ug/ml of respective antibodies, and inhibitory activity against migration was comparatively evaluated.

HUVEC cells = experiment: EGM-dependent HUVEC tube formation; assay type: cell-based, human; settings: 20 ug/ml
Source text: EGM is a type of complex including a variety of angiogenesis factors, which has been used to induce strong angiogenesis using vascular endothelial cells.

bevacizumab [reference compound]
hemoglobin content (microvessel formation) [1]: significantly reduced a hemoglobin content | microvessel formation (CD31 positive per field), HCT116/Beva (HCT116/Beva cells): not suppressed | microvessel formation (CD31 positive per field), HCT116 [2]: significantly reduced microvessel formation ability | number of blood vessels grown in the rat aorta [3]: reduced the number of blood vessels grown in the rat aorta | tumor size of U87 cells (U87 human glioma): significantly reduces the tumor sizes | hemoglobin content, CFPAC-1-derived (CFPAC-1 cells): significantly reduced hemoglobin | hemoglobin content, U87-derived (U87 human glioma cells): significantly reduced hemoglobin | hemoglobin content, SNU182-derived (SNU182 cells): significantly reduced hemoglobin

O=c1[nH]cc(F)c(=O)[nH]1 [Opti 5-FU, 5-fluorouracil, reference compound]
viability of HUVECs (HUVECs): significantly reduced viability

B1: Opti 13 (antibody, V domains shown)
VH: EVQLVESGGGLVQPGGSLRLSCAVSGFTFSGYDMSWIRQAPGKGLEWVAGIYPDGGNTYYADSVKGRFTISRDDSKNTFYLQMNSLRAEDTAVYYCARGAMEQVLGPFDLWGQGTLVTVSS
VL: DIQLTQSPSSLSASVGDRVTITCTGSSSNIGRCGVTWYQQKPGKAPKLLIYADSHRPSGVPSRFSGSGSGTDFTLTISSLQPEDFATYYCGAWDDSLSGYVFGQGTKVEIKR
notes: IgG from HEK293 cells; also called clone 13; optimized antibody clone 13
binding result [4]: binds | binding result [5]: binds

B2: Opti 1 (antibody, V domains shown)
VH: B1 VH with M101A, E102T, Q103K, P107K, L110C
VL: B1 VL
notes: IgG from HEK293 cells; also called optimized antibody clone 1
binding result [4]: binds | binding result [5]: binds

B3: deglyco C1 IgG (antibody, V domains shown)
VH: B1 VH with M101T, E102W, Q103W, L110Y
VL: B1 VL
notes: IgG expressed in HEK293 cells; In some assays conjugated with HRP; also called Deg C1; deglyco C1 IgG-HRP (HRP-conjugated form)
Kd (hclec14a-ECD-myc [6]): 6.07 nM | koff (hclec14a-ECD-myc [6]): 0.000297 s⁻¹ | kon (hclec14a-ECD-myc [6]): 49000 M⁻¹ s⁻¹ | binding result (mclec14a-CTLD-Fc): binds | Kd (hclec14a-ECD-myc [7]): 6 nM | binding result [5]: binds

B4: hclec14a-CTLD-Fc (Fc fusion, human, UniProt Q86T13 31-172, looked up)
chain: CSASGACYSLHHATMKRQAAEEACILRGGALSTVRAGAELRAVLALLRAGPGPGGGSKDLLFWVALERRRSHCTLENEPLRGFSWLSSDPGGLESDTLQWVEEPQRSCTARRCAVLQATGGVEPAGWKEMRCHLRANGYLCK
notes: domain: C-type lectin-like domain (CTLD); also called human clec14a-CTLD-Fc; human CTLD; not shown: Fc
binding result (hclec14a-ECD-myc [8]): binds | binding result [9]: binds

B5: Opti 16: IgG, heavy chain CDR3 GARRQVLGCFDF (SEQ ID No: 40), VL of Deg C1 (antibody, V domains shown)
VH: B1 VH with M101R, E102R, P107C, L110F
VL: B1 VL
binding to MAEC surface [10]: had cross-species reactivity | binding to HUVEC surface [11]: had cross-species reactivity | anti-angiogenesis activity (tube length and branch point) (GFP-transfected HUVECs; 20 ug/ml): potent efficacy | changes in tube length (progression of angiogenesis) (GFP-transfected HUVECs; representative images): same efficacy as Suramin and Avastin | endothelial migration inhibitory activity (HUVEC migration): same endothelial migration inhibitory activity as parent antibody (original C1), deglyco C1 IgG, and Avastin | suppression of EGM-dependent tube formation (HUVEC cells): efficiently suppressing angiogenesis
